Key:
p-NP-C4 = details: 35 °C
gfPET = experiment: Proxy for plastic degradation [Released monomer concentration (HPLC/LC-MS) (TPA+MHET)]; details: pH 8

B1: unnamed (protein)
chain: MDGVLWRVRTAALMAALLALAAWALVWASPSVEAQSNPYQRGPNPTRSALTADGPFSVATYTVSRLSVSGFGGGVIYYPTGTSLTFGGIAMSPGYTADASSLAWLGRRLASHGFVVLVINTNSRFDYPDSRASQLSAALNYLRTSSPSAVRARLDANRLAVAGHSMGGGGTLRIAEQNPSLKAAVPLTPWHTDKTFNTSVPVLIVGAEADTVAPVSQHAIPFYQNLPSTTPKVYVELDNASHFAPNSNNAAISVYTISWMKLWVDNDTRYRQFLCNVNDPALSDFRTNNRHCQ
- Km (p-NP-C4): 300 µM
- kcat (p-NP-C4): 21.6 s⁻¹
- kcat/Km (p-NP-C4): 71900 M⁻¹ s⁻¹
- Proxy for plastic degradation (gfPET; 35 °C, 1 h): 5 µM
- Proxy for plastic degradation (gfPET; 35 °C, 3 h): 14 µM
- Proxy for plastic degradation (gfPET; 35 °C, 5 h): 39 µM
- Proxy for plastic degradation (gfPET; 35 °C, 7 h): 95 µM
- Proxy for plastic degradation (gfPET; 35 °C, 10 h): 182 µM
- Proxy for plastic degradation (gfPET; 50 °C, 1 h): 480 µM
- Proxy for plastic degradation (gfPET; 50 °C, 3 h): 1470 µM
- Proxy for plastic degradation (gfPET; 50 °C, 5 h): 2380 µM
- Proxy for plastic degradation (gfPET; 50 °C, 7 h): 3250 µM
- Proxy for plastic degradation (gfPET; 50 °C, 10 h): 4130 µM

B2: unnamed (protein)
chain: MNFPRASRLMQAAVLGGLMAVSAAATAQTNPYARGPNPTAASLEASAGPFTVRSFTVSRPSGYGAGTVYYPTNAGGTVGAIAIVPGYTARQSSIKWWGPRLASHGFVVITIDTNSTLDQPSSRSSQQMAALRQVASLNGTSSSPIYGKVDTARMGVMGWSMGGGGSLISAANNPSLKAAAPQAPWDSSTNFSSVTVPTLIFACENDSIAPVNSSALPIYDSMSRNAKQFLEINGGSHSCANSGNSNQALIGKKGVAWMKRFMDNDTRYSTFACENPNSTRVSDFRTANCS
- Km (p-NP-C4; part of the chain shown): 240 µM
- kcat (p-NP-C4; part of the chain shown): 15.1 s⁻¹
- kcat/Km (p-NP-C4; part of the chain shown): 62900 M⁻¹ s⁻¹
- Proxy for plastic degradation (gfPET; 35 °C, 1 h, part of the chain shown): 17 µM
- Proxy for plastic degradation (gfPET; 35 °C, 3 h, part of the chain shown): 38 µM
- Proxy for plastic degradation (gfPET; 35 °C, 5 h, part of the chain shown): 45 µM
- Proxy for plastic degradation (gfPET; 35 °C, 7 h, part of the chain shown): 55 µM
- Proxy for plastic degradation (gfPET; 35 °C, 10 h, part of the chain shown): 77 µM
- Proxy for plastic degradation (gfPET; 50 °C, 1 h, part of the chain shown): 10 µM
- Proxy for plastic degradation (gfPET; 50 °C, 3 h, part of the chain shown): 25 µM
- Proxy for plastic degradation (gfPET; 50 °C, 5 h, part of the chain shown): 50 µM
- Proxy for plastic degradation (gfPET; 50 °C, 7 h, part of the chain shown): 70 µM
- Proxy for plastic degradation (gfPET; 50 °C, 10 h, part of the chain shown): 209 µM
